Holding throughout (experiment): cell-based or functional assay
The target in one assay is T1, mouse GIP receptor (mouse, UniProt Q0P543 19-460).
T1 sequence (looked up): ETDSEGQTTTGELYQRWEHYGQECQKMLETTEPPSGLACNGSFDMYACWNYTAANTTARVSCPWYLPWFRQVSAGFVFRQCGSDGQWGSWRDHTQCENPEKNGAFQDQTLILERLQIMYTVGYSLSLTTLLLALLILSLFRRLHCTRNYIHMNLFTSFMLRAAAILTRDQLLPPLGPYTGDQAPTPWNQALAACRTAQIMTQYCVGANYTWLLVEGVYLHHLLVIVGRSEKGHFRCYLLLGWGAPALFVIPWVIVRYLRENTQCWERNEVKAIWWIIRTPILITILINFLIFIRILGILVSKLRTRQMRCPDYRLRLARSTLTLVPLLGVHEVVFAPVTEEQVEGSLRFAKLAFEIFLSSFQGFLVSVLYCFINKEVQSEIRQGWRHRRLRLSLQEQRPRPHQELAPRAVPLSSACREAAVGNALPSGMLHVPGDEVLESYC

The target of assay [1] is T2, human GLP1 receptor (human, UniProt P43220 24-463).
Assay [2] deals with T3, human GIP receptor (human, UniProt P48546 22-466).
T3 sequence (looked up): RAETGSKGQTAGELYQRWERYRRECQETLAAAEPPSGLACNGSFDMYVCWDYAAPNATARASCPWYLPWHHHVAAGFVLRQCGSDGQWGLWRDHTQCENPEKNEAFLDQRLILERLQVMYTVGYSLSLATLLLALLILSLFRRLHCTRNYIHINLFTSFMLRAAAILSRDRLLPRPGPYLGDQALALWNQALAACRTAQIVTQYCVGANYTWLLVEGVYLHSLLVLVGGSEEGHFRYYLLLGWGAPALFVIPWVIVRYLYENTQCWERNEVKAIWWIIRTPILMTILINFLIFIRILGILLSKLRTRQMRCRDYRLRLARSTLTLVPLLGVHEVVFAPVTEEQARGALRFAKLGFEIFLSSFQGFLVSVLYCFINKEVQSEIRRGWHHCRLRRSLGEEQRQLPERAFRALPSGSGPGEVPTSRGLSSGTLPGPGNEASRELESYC

In assay [3] the target is T3, human GIP receptor. The source holds these as a separate data set.
Assay [4] has as its target T2, human GLP1 receptor. The source holds these as a separate data set.

Like-named read-outs stand apart in the source and are kept apart here. Where no end group is shown, it is not given here.

B1: P46: SP01-amG3 (antibody, human IgG4 S228P, kappa, F234A L235A)
light: HGEGTFTSDVSSYLEEQAAKEFIAWLVKGGGGGGGSGGGGSGGGGSDVVMTQTPLSLPVSLGDQASISCRSSQSLVHSNGDTYLHWYLQKPGQSPKLLIYKVSNRFSGVPDRFSGSGSGTDFTLKISRVEAADLGVYFCSQSTHVPPFTFGGGTKLEIKRTVAAPSVFIFPPSDEQLKSGTASVVCLLNNFYPREAKVQWKVDNALQSGNSQESVTEQDSKDSTYSLSSTLTLSKADYEKHKVYACEVTHQGLSSPVTKSFNRGEC
heavy: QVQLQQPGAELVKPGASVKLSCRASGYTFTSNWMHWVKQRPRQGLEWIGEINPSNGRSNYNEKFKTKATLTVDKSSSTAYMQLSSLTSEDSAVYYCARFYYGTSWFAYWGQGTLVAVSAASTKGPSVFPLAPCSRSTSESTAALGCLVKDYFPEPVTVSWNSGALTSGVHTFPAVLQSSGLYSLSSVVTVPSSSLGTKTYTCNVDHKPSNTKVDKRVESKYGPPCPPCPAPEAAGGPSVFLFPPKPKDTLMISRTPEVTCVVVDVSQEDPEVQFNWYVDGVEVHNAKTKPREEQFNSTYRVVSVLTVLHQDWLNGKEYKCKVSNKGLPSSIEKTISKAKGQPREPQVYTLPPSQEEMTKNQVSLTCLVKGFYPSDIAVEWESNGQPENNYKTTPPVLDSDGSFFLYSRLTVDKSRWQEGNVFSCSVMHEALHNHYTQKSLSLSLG
In the case of B1, the “IC50, HTRF cAMP bioassay” value with mouse GIP receptor is 11.2 nM. Moreover, the “EC50, HTRF cAMP bioassay” value in the assay with human GLP1 receptor [1] was determined as 0.034 nM.

B2: P26: SP02-bispecific antibodies for GLP1R and GIPR (bispecific antibody, human IgG1, kappa)
chain 1: YGEGTFTSDYSIYLDKIAQKAFVQWLIAGGPSSGAPPPSGGGGSGGGGSGGGGSDIVMTQSPSSLTVTAGEKVTMSCKSSQSLLNSGNQKNYLTWYQQKPGQPPKLLISWASTRDSGVPDRFTGSGSGTDFTLTISSVQAEDLAVYYCQNDYSYPLTFGAGTKLELKRTVAAPSVFIFPPSDEQLKSGTASVVCLLNNFYPREAKVQWKVDNALQSGNSQESVTEQDSKDSTYSLSSTLTLSKADYEKHKVYACEVTHQGLSSPVTKSFNRGEC
chain 2: YGEGTFTSDYSIYLDKIAQKAFVQWLIAGGPSSGAPPPSGGGGSGGGGSGGGGSQIVLTQSPAIMSASPGEKVTMTCSASSRVTYMHWYQQRSGTSPKRWIYDTSKLASGVPARFSGSGSGTSYSLTISSMEAEDAATYYCQQWGNNPQYTFGGGTRLEIKRTVAAPSVFIFPPSDEQLKSGTASVVCLLNNFYPREAKVQWKVDNALQSGNSQESVTEQDSKDSTYSLSSTLTLSKADYEKHKVYACEVTHQGLSSPVTKSFNRGEC
chain 3: not shown
chain 4: not shown
As for B2, the figures for the “EC50, HTRF cAMP bioassay” value with mouse GIP receptor, with human GLP1 receptor [1] and in the assay with human GIP receptor [2] were 0.35 nM, 0.12 nM and 48 nM, respectively.

B3: P28: SP02-amG2 (antibody, human IgG4 S228P, kappa, F234A L235A)
light: YGEGTFTSDYSIYLDKIAQKAFVQWLIAGGPSSGAPPPSGGGGSGGGGSGGGGSDIVMTQSPSSLTVTAGEKVTMSCKSSQSLLNSGNQKNYLTWYQQKPGQPPKLLISWASTRDSGVPDRFTGSGSGTDFTLTISSVQAEDLAVYYCQNDYSYPLTFGAGTKLELKRTVAAPSVFIFPPSDEQLKSGTASVVCLLNNFYPREAKVQWKVDNALQSGNSQESVTEQDSKDSTYSLSSTLTLSKADYEKHKVYACEVTHQGLSSPVTKSFNRGEC
heavy: not shown
B3: the “EC50, HTRF cAMP bioassay” value came out at 0.42 nM with mouse GIP receptor, 1.25 nM in the assay with human GLP1 receptor [1] and 69 nM with human GIP receptor [2].
With YGEGTFTSDYSIYLDKIAQKAFVQWLIAGGPSSGAPPPS (ends and bridges not checked) [SP02: GLP1/GIP receptor co-agonist analogue], in the assay with human GIP receptor [3], the “EC50, HTRF cAMP bioassay” value stood at 3.69 nM.
Consider YGEGTFTSDYSIQLDKIAQKAFVQWLIAGGPSSGAPPPS (ends and bridges not checked) [SP03: GLP1/GIP receptor co-agonist analogue], for which the figures for the “EC50, HTRF cAMP bioassay” value in the assay with human GLP1 receptor [4] and with human GIP receptor [3] were 0.225 nM and 22 nM, respectively.

These data come from patent publication US20250270274A1 (SERPENTIDE, published 2025).
